Data reported in patent US20190234935A1 (Janssen / Centocor, published 2019).

Legend:
[1] = target: T1, N-terminally flag tagged full-length GFRα4 on transiently transfected HEK293F cells (Homo sapiens (Human), UniProt Q9GZZ7 21-278); test: FACS on transfected HEK293F cells
T1 sequence: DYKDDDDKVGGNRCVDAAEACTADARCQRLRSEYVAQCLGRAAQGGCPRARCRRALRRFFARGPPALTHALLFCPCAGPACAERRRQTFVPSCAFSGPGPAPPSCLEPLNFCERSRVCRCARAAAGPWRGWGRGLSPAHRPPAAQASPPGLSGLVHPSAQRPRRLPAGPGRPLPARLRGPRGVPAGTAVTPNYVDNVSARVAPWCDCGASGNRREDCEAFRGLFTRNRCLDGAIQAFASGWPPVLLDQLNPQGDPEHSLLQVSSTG
Protocol: (§1) For the confirmation of specific binding of GDF15 to GFRAL, HEK293F cells expressing the N-terminally flag tagged GFRAL, GFRα1, GFRα2, GFRα3 or GFRα4 were incubated with Fc-GDF15 and the binding was analyzed by FACS. Briefly, transiently transfected cells were spun down two days post transfection, washed with 1×BD staining buffer (BD Pharmingen) and treated with 5 μg/ml of Fc-GDF15 by incubating at 4° C. for 1 hour in 1×BD staining buffer (BD Pharmingen). Cells were subsequently washed and stained with the secondary antibody, goat anti-human IgG conjugated with Alexa Fluor 647 (AF647, Life Technologies), at 4° C. for 30 min, for the detection of Fc-GDF15 binding. Cells from the same batch of transfection were also stained with an Fc isotype negative control, and with FITC-labeled anti-flag antibody (Sigma) for the detection of cell surface expression, and DAPI for live/dead staining. The stained cells were analyzed on BD Fortessa LSR.

[2] = target: T2, N-terminally flag tagged full-length GFRα3 on transiently transfected HEK293F cells (Homo sapiens (Human), UniProt O60609 32-374); test: FACS on transfected HEK293F cells
T2 sequence: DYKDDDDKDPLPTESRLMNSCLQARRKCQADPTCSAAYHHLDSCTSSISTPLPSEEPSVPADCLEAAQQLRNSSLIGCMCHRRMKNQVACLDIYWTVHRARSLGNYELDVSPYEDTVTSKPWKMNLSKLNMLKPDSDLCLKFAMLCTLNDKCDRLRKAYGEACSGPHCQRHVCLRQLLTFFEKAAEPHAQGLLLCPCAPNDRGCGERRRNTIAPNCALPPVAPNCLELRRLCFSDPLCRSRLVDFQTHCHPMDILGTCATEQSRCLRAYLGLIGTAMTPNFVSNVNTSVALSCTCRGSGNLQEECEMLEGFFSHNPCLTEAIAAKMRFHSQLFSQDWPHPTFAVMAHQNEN
Protocol: as §1

[3] = target: T3, N-terminally flag tagged full-length GFRα1 on transiently transfected HEK293F cells (Homo sapiens (Human), UniProt P56159 25-429); test: FACS on transfected HEK293F cells
T3 sequence: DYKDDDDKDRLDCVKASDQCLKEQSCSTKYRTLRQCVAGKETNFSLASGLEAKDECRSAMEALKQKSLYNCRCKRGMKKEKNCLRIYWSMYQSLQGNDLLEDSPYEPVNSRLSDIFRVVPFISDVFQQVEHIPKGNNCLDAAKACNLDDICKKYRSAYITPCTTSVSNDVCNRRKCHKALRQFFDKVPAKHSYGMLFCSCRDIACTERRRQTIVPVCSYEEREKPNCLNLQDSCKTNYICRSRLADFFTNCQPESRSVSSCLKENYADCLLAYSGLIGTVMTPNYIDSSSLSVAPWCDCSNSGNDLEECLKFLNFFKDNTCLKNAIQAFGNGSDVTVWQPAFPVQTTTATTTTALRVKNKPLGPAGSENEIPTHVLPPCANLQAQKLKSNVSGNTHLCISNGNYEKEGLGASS
Protocol: as §1

[4] = target: T4, N-terminally flag tagged full-length GFRα2 on transiently transfected HEK293F cells (Homo sapiens (Human), UniProt O00451 22-444); test: FACS on transfected HEK293F cells
T4 sequence: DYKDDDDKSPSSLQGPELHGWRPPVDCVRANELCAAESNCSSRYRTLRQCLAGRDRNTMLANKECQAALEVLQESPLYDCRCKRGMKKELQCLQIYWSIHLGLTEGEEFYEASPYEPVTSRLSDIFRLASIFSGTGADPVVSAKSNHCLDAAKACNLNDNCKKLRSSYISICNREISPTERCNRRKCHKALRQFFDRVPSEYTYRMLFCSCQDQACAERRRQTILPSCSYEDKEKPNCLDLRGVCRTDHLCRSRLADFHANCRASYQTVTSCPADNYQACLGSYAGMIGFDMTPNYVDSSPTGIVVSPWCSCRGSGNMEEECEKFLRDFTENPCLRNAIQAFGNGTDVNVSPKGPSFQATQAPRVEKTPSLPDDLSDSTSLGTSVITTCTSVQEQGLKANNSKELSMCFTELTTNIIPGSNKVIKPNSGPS
Protocol: as §1

[5] = target: T5, N-terminally flag tagged full-length GFRAL on transiently transfected HEK293F cells (Homo sapiens (Human), UniProt Q6UXV0 19-394); test: FACS on GFRAL-expressing HEK293F cells, dose response
T5 construct: also called GFRAL-overexpressing HEK293F cells; GFRAL-expressing cells
T5 sequence: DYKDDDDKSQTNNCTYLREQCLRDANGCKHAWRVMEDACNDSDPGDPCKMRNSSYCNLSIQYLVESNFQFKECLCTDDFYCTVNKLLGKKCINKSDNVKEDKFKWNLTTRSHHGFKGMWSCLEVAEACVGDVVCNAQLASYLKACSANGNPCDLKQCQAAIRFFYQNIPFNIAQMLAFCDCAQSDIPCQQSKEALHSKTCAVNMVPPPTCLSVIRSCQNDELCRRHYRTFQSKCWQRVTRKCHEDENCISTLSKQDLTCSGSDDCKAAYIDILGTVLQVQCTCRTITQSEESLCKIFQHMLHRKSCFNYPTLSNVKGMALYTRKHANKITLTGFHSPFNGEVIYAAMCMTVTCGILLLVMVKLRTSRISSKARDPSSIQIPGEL

binding result [1]: no binding (tested: 5 µg/ml)
binding result [2]: no binding (tested: 5 µg/ml)
binding result [3]: no binding (tested: 5 µg/ml)
binding result [4]: no binding (tested: 5 µg/ml)
EC50 [5]: 0.258 nM
B1: heterodimeric Fc-GDF15 fusion molecule (Fc fusion)
chain 1: CPPCPAPEAAGGPSVFLFPPKPKDTLMISRTPEVTCVVVDVSQEDPEVQFNWYVDGVEVHNAKTKPREEQFNSTYRVVSVLTVLHQDWLNGKEYKCKVSNKGLPSSIEKTISKAKGQPREPQVYTLPPSQEEMTKNQVSLSCAVKGFYPSDIAVEWESNGQPENNYKTTPPVLDSDGSFFLVSRLTVDKSRWQEGNVFSCSVMHEALHNHYTQKSLSLSLGKGSGGGARNGDHCPLGPGRCCRLHTVRASLEDLGWADWVLSPREVQVTMCIGACPSQFRAANMHAQIKTSLHRLKPDTVPAPCCVPASYNPMVLIQKTDTGVSLQTYDDLLAKDCHCI
chain 2: CPPCPAPEAAGGPSVFLFPPKPKDTLMISRTPEVTCVVVDVSQEDPEVQFNWYVDGVEVHNAKTKPREEQFNSTYRVVSVLTVLHQDWLNGKEYKCKVSNKGLPSSIEKTISKAKGQPREPQVYTLPPSQEEMTKNQVSLWCLVKGFYPSDIAVEWESNGQPENNYKTTPPVLDSDGSFFLYSRLTVDKSRWQEGNVFSCSVMHEALHNHYTQKSLSLSLGK
notes: also called Fc-GDF15 ligand
